Measurements published in PMC7176432, “Single-molecule functional anatomy of endogenous HER2-HER3 heterodimers” (eLife, 2020).

Test system: T1, Nc1ncnc2c1ncn2[C@@H]1O[C@H](COP(=O)(O)OP(=O)(O)OP(=O)(O)O)[C@@H](O)[C@H]1O
T1 construct: entire endogenous HER2, ligand-free HER2 complexes immunoprecipitated from SKBR3 cells
Test: Michaelis-Menten titration of ATP, single-molecule pTyr1196 immunolabeling (KM)
Format: biochemical, Homo sapiens
Settings: Mg2+

In the case of HER2 (Homo sapiens), the Km is reported as 16.46 µM.
